The target of test [1] is acid-denatured hemoglobin.
The target of test [2] is epidermal growth factor (recombinantly synthesized molecule consisting of the first 52 amino acids of the authentic 53 amino acid EGF molecule).
For test [3], the target named is growth hormone releasing factor (recombinantly synthesized as described in EP 206783).

Results on four substances are retold here after patent publication US5691166.

Bounds are passed on as bounds.

For “Pichia pastoris proteinase A (product of the Pichia PEP4 gene) (enzyme)”, the proteinase A activity, ΔOD/µg protein (release of amino acids from acid-denatured hemoglobin, 90 min) (ΔOD/µg protein) in test [1] worked out at 13.1. In the case of “Saccharomyces cerevisiae proteinase A (encoded by the S. cerevisiae PEP4 gene) (from UniProt P07267) (enzyme)”, the proteinase A activity, ΔOD/µg protein (release of amino acids from acid-denatured hemoglobin, 90 min) (ΔOD/µg protein) in test [1] turned out to be 28.1. “proteolytic activity of the cell-free broth from a one-liter fermentation of the HIS4 PEP4 P. pastoris strain G+PAO804H2”: the intact peptide remaining after 8 h incubation in broth (reverse phase HPLC) in test [2] was less than 10 % intact. In addition, the intact peptide remaining after 4 h incubation in broth (reverse phase HPLC) in test [3] was less than 10 % intact. “proteolytic activity of the cell-free broth from the one-liter fermentation of the pep4 P. pastoris strain p13”: the intact peptide remaining after 8 h incubation in broth (reverse phase HPLC) in test [2] was greater than 90 % intact. Further, the intact peptide remaining after 4 h incubation in broth (reverse phase HPLC) in test [3] is greater than 60 % intact.
